Reference: PMC9816786 (2022)

Target: T1, PCSK9 (Homo sapiens (Human), UniProt Q8NBP7)
T1 chain: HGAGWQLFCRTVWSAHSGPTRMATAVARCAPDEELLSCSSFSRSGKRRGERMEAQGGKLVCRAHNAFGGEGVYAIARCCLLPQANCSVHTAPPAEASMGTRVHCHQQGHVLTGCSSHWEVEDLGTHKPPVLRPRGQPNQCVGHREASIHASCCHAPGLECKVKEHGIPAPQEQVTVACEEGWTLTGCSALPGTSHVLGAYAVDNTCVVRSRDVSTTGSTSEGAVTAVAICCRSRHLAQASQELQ
Test: BLI; pH 7.5

Kd: 1360 nM
B1: CAP1 (protein)
chain: ADMQNLVERLERAVGRLEAVSHTSDMHRGYADSPSKAGAAPYVQAFDSLLAGPVAEYLKISKEIGGDVQKHAEMVHTGLKLERALLVTASQCQQPAENKLSDLLAPISEQIKEVITFREKNRGSKLFNHLSAVSESIQALGWVAMAPKPGPYVKEMNDAAMFYTNRVLKEYKDVDKKHVDWVKAYLSIWTELQAYIKEFHTTGLAWSKTGPVAKELSGLPSGPSAGSCPPPPPPCPPPPPVSTISCSYESASRSSLFAQINQGESITHALKHVSDDMKTHKNPALKAQSGPVRSGPKPFSAPKPQTSPSPKRATKKEPAVLELEGKKWRVENQENVSNLVIEDTELKQVAYIYKCVNTTLQIKGKINSITVDNCKKLGLVFDDVVGIVEIINSKDVKVQVMGKVPTISINKTDGCHAYLSKNSLDCEIVSAKSSEMNVLIPTEGGDFNEFPVPEQFKTLWNGQKLVTTVTEIAG
